In a protein production outcome set (Wang et al. 2014):

Test: label from the status in PepcDB records

Row | Sequence | protein production
1 | MKIYLVGGAVRDALLGLPVKDKDWVVVGATPQEMLDAGYQQVGRDFPVFLHPQTHEEYALARTERKSGSGYTGFTCYAAPDVTLEADLQRRDLTINALARDDAGQIIDPYHGRRDLEARLLRHVSPAFGEDPLRVLRVARFAARYAHLSFRIADETLALMREMTAAGELEHLTPERVWKETENALTTRNPQVYFQVLRDCGALRVLFPEIDALFGVPAPAKWHPEIDTGVHTLMTLSMAAMLSPQLDVRFATLCHDLGKGLTPKNLWPRHHGHGPAGVKLVEQLCQRLRVPNDLRDLAKLVAEYHDLIHTFPILQPKTIVKLFDAIDAWRKPQRVEQIALTSEADVRGRTGFEASDYPQGRWLREAWQVAQAVPTKEVVEAGFKGIEIREELTKRRIAAVANWKEKRCPNPAS | failed
2 | MTLAARETAALDSVPEPPLADQLRAMDHLDALEAQSIYILREAFARLKKLALLWSLGKDSNVMIWLARKAFFGRVPFPALHVDTGKKFPEMYAFRDIYAKEWDLDLRVDPCPPIDSVDPTLPPAARSAARKTEGLKLALAKYGFDGLIAGIRRDEEATRAKERVFSPRGVEGGWDVRDQPAEFWDQFNASPPPGAHLRIHPILHWTEADIWAYTKREGIPIIPLYLSQNGKRYRSLGDQDITFPVNSNAASIDEILLELETTKVPERAGRALDHETEDAFERLRVAGYL | failed
3 | MSLSPSARRVQGALETRGFGHLKVVELPASTRTAKEAAQAVGAEVGQIVKSLVFVGEKGAYLFLVSGKNRLDLGKATRLVGGPLRQATPEEVRELTGFAIGGVPPVGHNTPLPAYLDEDLLGYPEVWAAGGTPRALFRATPKELLALTGAQVADLKEG | not failed
4 | MNMKLQVTVLKGDVIENGYEVVDAVEGNGNNDDSGDDGGEDEEGSADDAEGKETKKGPVSDPDLNGEAGDNDDEPEGDDGNDDEDDDNHENDDEDEEEDEDENDDGGEEDDDEDAEVEEEEEEEDEDDEEALQPPKKRKK | failed
5 | MKPGGTVRALDRLGSAEYPSSHMEVLVAEGTRPSRQRNQAAAAAAGEILYFLDDDSLTSPDFLARAAAHLADPSIAAVGGPSLTPASDSRFQRAIGVVLASRLGGGGARNRYRATGSPRRTSERELILCNLAMRRDVFLAEGGLDERLYPNEENELMDRISKRGMSLVHDPDLAVRRSQRPTFRAFVRQFFGYGRGRGEQTRIAGVRSVVDFLPTVFLIYLLLLPVAPWAPCFLPAALYGAAVMVSALSGAVHSRLYAALPWLVVLYPTLHLCYGAGLLKGLLAPRFRSGGGETAPVTIRCVKEFGTPWHLPAHGPREVPR | failed
6 | MSRIGKLLLGIVNLGPIGFMAVAVYRHGDLPASAVAVQVAVVAVLLGIYLRHLAGNDQLTRGLRRGWALVLLAGNWAVFPVYWHQFVWQDPRER | failed
7 | MRTKNILAALALFLGISLPSLVEAANAYATGNVNVRTGPGTRYPRTGTIPAGATLTIRGCLNGYSWCEVIFAGQSGWASSNYLQATYQNRRRPVIHIGPVIGLPVIVHKPRPPHWEHRPRPPRPPHWGHRPRPPHWDHRPRPPRPQPRLEHHHHHH | not failed
8 | MFEASTFLLFMGSAIMLIIIPGPDLVFTITQGMTNGRKAGVITAMGLSLGNIVHTLAAVLGLSLIIQTSVVVFTIFKLAGAMYLFYLAYKALKHRKEEIRVNSEKTNDLKGLFLRGLIMNVLNPKVAIFYLTFLPQFVNYQSANISLQLCILGLIFIIMTAIIFSIFGYFSGTFRDRLLKNSRFNEYMNIAATIIFIGLGLKLMTTQL | failed
9 | MLESVAAEPRRAAATDQAGTEARKQRLRRRLERLIGIAATEGNELVPLRNGDEIFPAMLRAIRTAEHTVDMMTFVYWRGQIARDFAAALAERARAGVRVRLLLDGFGAKQIEEGLLESMNSAGVEVAWFRKPLWLSPLKQNHRCHRKVLVVDEHTAFTGGVGIAEEWGGDARNPSEWRDTHVQVRGPAVDGIAAAFAQNWAECHDELFDERDRFTEHEQSGRATVQVVRGSASFGWQDMQTLVRVMLASAEERFRLSTAYFAPDSYFVDLLCATARRGVQVQILLPGPYTDQRACRLAGQHYYGTLLDAGVEIRQYQPTMLHTKIMTVDGVAALIGSSNFNRRSMEHDEEIMLAVLDETFTAALDRDFEEDRERAEAIVAARWKHRSPVQRLKEAIVAPVRRFL | failed
10 | MLNPDELVAIDIHTHAEEPCGCHADDGYDDFQARMAEYFGSPNKHPPTVPETAAYYRAKKIAAVIFPVDAERETGFRRYNNDEMIEITRQNSDVLIPFASIDPHKGKIGVREARRLIADYGIKGFKFHPTMQGFYANDRLAYPLYEAIQEGGAIALFHTGQTGVGSGMPGGMGMRLKYSNPMYMDDVAADFPDMKIVLAHPSFPWQEEALSVATHKPNVYIDLSGWSPKYFPPILVRYINSILQDKMLFGSDWPVITPDRWLSDFAKLEIREEVRAKVLKQNARKLLGI | failed
11 | GLNHMTARYLREEHHMFRAAFRKFLEKEAYPHYNDWEKRGIIPRSFWAKMGENGFLCPWVDEKYGGLNADFAYSVVINEELEKVGSSLVGIGLHNDIVTPYIASYGTEEQKQKWLPKCVTGELITAIAMTEPGAGSDLANISTTAVKDGDYYIVNGQKTFITNGIHADLIVVACKTDPQAKPPHRGISLLVVERDTPGFTRGRKLEKVGLHAQDTAELFFQDAKVPAYNLLGEEGKGFYYLMEKLQQERLVVAIAAQTAAEVMFSLTKQYVKQRTAFGKRVSEFQTVQFRLAEMATEIALGRTFVDRVIEEHMAGKQIVTEVSMAKWWITEMAKRVAAEAMQLHGGYGYMEEYEIARRYRDIPVSAIYAGTNEMMKTIIARQLDL | not failed
12 | SVFPQQTGQLAELQPQDRAGARASWMPMFQRRRRRDTHFPICIFCCGCCHRSKCGMCCKT | failed
13 | MIWIVGSGTCRGQTTERAKEIIERAEVIYGSRRALELAGVVDDSRARILRSFKGDEIRRIMEEGREREVAVISTGDPMVAGLGRVLREIAEDVEIKIEPAISSVQVALARLKVDLSEVAVVDCHAKDFDAELTELLKYRHLLILADSHFPLERLGKRRVVLLENLCMEGERIREGNADSIELESDYTIIFVEREVME | not failed
14 | MDVFSDRVLLTEESPIRKLVPFAEMAKKRGVRIHHLNIGQPDLKTPEVFFERIYENKPEVVYYSHSAGIWELREAFASYYKRRQRVDVKPENVLVTNGGSEAILFSFAVIANPGDEILVLEPFYANYNAFAKIAGVKLIPVTRRMEEGFAIPQNLESFINERTKGIVLSNPCNPTGVVYGKDEMRYLVEIAERHGLFLIVDEVYSEIVFRGEFASALSIESDKVVVIDSVSKKFSACGARVGCLITRNEELISHAMKLAQGRLAPPLLEQIGSVGLLNLDDSFFDFVRETYRERVETVLKKLEEHGLKRFTKPSGAFYITAELPVEDAEEFARWMLTDFNMDGETTMVAPLRGFYLTPGLGKKEIRIACVLEKDLLSRAIDVLMEGLKMFCSSRISC | not failed
15 | MDQIFNKVGSYWLGQKANKQFDSVGNDLNSVSTSIEGGTKWLVNKIKGKMQKPLPELLKEYDLPIGIFPGDATNYEFDEETKKLTVLIPSICEVGYKDSSVLKFTTTVTGHLEKGKLTDVEGIKTKVMIWVKVTSISTDASKVYFTAGMKKSRSRDAYEVQRNGLRVDKF | not failed
16 | MKILYIVLDGAADSPTSPRKTLEEASKPNIDSLGSHAVCGMVYTVKPGVAPQSDYATLSLLGYNPDEYYPGRGPLEAFGAGIEMRRGDIALRANFATVDPGTLRIIDRRVGRSLTSREARELASAVDGMELEDGEGTALFRATIGHRGVLVLRHRSKPLSDAISNTDPAYERRGRFSVALEKYEPFIKLSNPLVEDEAAVLAARMLNEFTLKAVEILDSHPVNLAREKRGLLKANAILSRDAGGLPEEKPPSFQERFGLRGASIVEMVVERGISRYIGLDDIRVEIEGRAREEVYREEAARAVEALETHDLVYVHLKGPDEPGHDGSFEGKIRAVEDIDKHFFAPLLDRLSSAGLEPAFVVTSDHATPWDVGAHSGDPVPLMISHQSIQ | failed
17 | MTLAPPPMPPSDAPAAESAGATLRLVIADALVVILTFIVMFLGVGQLSAEAGLSAVQTAVMTLLTVAAPAQAAAMQIMTSDGATSGVWVAAMVAVIIVNLRFMVMVASILGRLPQAGFLRGTAAVGLVSASSFAIILPRLMSAPPARPLLYCALVGVSCSISAVIGALLGHQLAASVPALVGAALGAMIPIYFATLIARQGKHKALIANALAGAVLVPLAAPLLGSLSLLIVPLGISALSLMIGKGTPANG | failed
18 | MFQSKSRTSLTNKKTLLFGLISVFLCGMGFSIIMPVVPFLVTPYVTNASDQALMVTLLTSVYAFCVFFAAPGLGALSDRFGRRPVLLICFIGSAIGYFIFGLGGALWVLFLGRIIEGITGGSISTLFAFFADITPQEERTKYFGWVSAAAGAGAALGPAFGGLLAHFGYAMPFFFGATITFINFLFGYFYMPESLDDANRLKRIPLMRLNPFSQLLNILTIKNLGRLLIAAFFIWVPNGSLQAVMSQFAIDSFSWKPALIGMMFSIMGIQDILSQAFVMPKLLIRLTDKQIAVLGMIAEIIGYSLIATSSIFTLAPLLVIGMFVFGFGDSIFGPSFNGMVSKAASASEQGRIQGGSQAIQSLARIIGPIIGGQIYITLGHAAPAIMGVLLITVAIFILYKKTSLAK | failed
19 | AEMKTYSHRTMPSACTLVMCSSVESGLPGRDGRDGREGPRGEKGDPGLPGAAGQAGMPGQAGPVGPKGDNGSVGEPGPKGDTGPSGPPGPPGVPGPAGREGPLGKQGNIGPQGKPGPKGEAGPKGEVGAPGMQGSAGARGLAGPKGERGVPGERGVPGNTGAAGSAGAMGPQGSPGARGPPGLKGDKGIPGDKGAKGESGLPDVASLRQQVEALQGQVQHLQAAFSQYKKVELFPNGQSVGEKIFKTAGFVKPFTEAQLLCTQAGGQLASPRSAAENAALQQLVVAKNEAAFLSMTDSKTEGKFTYPTGESLVYSNWAPGEPNDDGGSEDCVEIFTNGKWNDRACGEKRLVVCEF | failed
20 | MEDELPIIKGKKVILFAPTFRGSGHGTAHYPFFKIDFERLARYCEKNNAVVLFKMHPFVKNRLNIADKHKQYFVDVSDFREVNDILFITDLLISDYSSLIYEYAVFKKPMIFYAFDLEDYITTRDFYEPYESFVPGKIVQSFDALMDALDNEDYEGEKVIPFLDKHFKYQDGRSSERLVRNLFGS | not failed
21 | MIVSKRTFRSLYIPILIEQLFILIMGQADTLMLNSYSTDAVAASGMISQILMLITFLITIIHVGTNIRIVHLKEHQPSSISQEIYHNLLFNSIVSIVFTIVIGIAFELILRLFQVPQDIFKLTYQFGMIILSVLTLTTCHMYIGTVLRVMNHASSATRITIISNVTNIILNGIVLFIIPQYVGNPVLGVAVVTAFSRLLGCTLALIALIQIFRPFKHYFKLSWKKIYQVSTLGIPTAGEQISYNFAQTFTTAFIAMLGTQVIAAKSVSTVLSGLSFSCAMAFSAASQIYLGKFISRRRYRTLKKVVIKSIWFNITQSFMIMTCVFIGFIVCGRWITHDIQTYHLIIYYLVILFGLEPIRAINNLIVDLLNVTGDVRYPVTVSVVTTWLLLLPGSYLLGIHWRLGYTGIILVSIADEALRFIIMYLRWRNDRWQARMKQIGV | failed
22 | MGRRPSSSHKVSSGKISARPSLHCERGGFMRKTFLAPLTVALCALAAAQTPPPAPIDRPLPAPEPPATATVTRNEPTPQQFTPDKLARLKVPAGFKVSVMATELGNARMLHVMPDGGIYLSRRQNGDIWYLKDVNGDGTIDATERRRVADQLKLVHGIDTRQGKLYAVGEKTIWVMDIARDGTLSVPRVFADNFPDAGQHPARQLGWGPDGYLYASFGATNNDAPTQNPEEATILRIRPDGQVREVYARGLRHTIGFGWHPVTKTFYGMDQGSDWHGDNIPPEELNVIKRGKNYGWPFCYGAKNPDPFVNVANIPGKITKAEYCATTEPSTLNYTAHAAAIALKFYTGTQFPAEFRNDAFVTFRGSWNRNEPSGYEVARVVFDAQNKPEKIEPFVTGFVYQEGGEWKQFGRVAGLAVYTDGSLLFTDDQSGVIYRVQYVGGQK | failed
23 | MGDALSLLQQADRLHRQLLRTGPAQAPCWEPPVDMIETESAVLIYVALPGVAAGDVAVRFDPDGISISGVRPLPALRNARIHGLEIPYGRFQRRIRLPLHALEPEAPTLADGCLTLTLKKLREAPLEHHHHHH | not failed
